# Measurements as given in patent US20220356229A1 (published 2022).
# Biological target: SARS-CoV Spike protein (full length Spike, coupled to optically encoded beads) (SARS-CoV, UniProt P59594 14-1190)
row,Binder,"median fluorescence, fold over isotype"
1,"anti-SARS-CoV-2 antibody 412 (antibody, V domains shown) VH: QVQLVQSGAEVKKPGASVKVSCKASGYTFTSYGISWVRQAPGQGLEWMGWISAYNGNTNYAQKLQGRVTMTTDTSTSTAYMELRSLRSDDTAVYYCARVTVEAIFGVVILPLKNWFDPWGQGTLVTVSS VL: QSVLTQPPSVSGAPGQRVTISCTGSSSNIGAGYDVHWYQQLPGTAPKLLIYGNSNRPSGVPDRFSGSKSGTSASLAITGLQAEDEADYYCQSYDSSLTLYVFGTGTKVTVL",1.09 fold over isotype
2,"anti-SARS-CoV-2 antibody 404 (antibody, V domains shown) VH: QVQLVESGGGVVQPGRSLRLSCAASGFTFSSYGMHWVRQAPGKGLEWVAVIWYDGSNKYYADSVKGRFTISRDNSKNTLYLQMNSLRAEDTAVYYCARLAVDISFDGSDGMDVWGQGTTVTVSS VL: SYELTQPPSVSVSPGQTARITCSGDALPKKYAYWYQQKSGQAPVLVIYEDSKRPSGIPERFSGSSSGTMATLTISGAQVEDEADYYCYSTDSSGKGVFGTGTKVTVL",1.04 fold over isotype
3,"anti-SARS-CoV-2 antibody 421 (antibody, V domains shown) VH: QVQLVESGGGVVQPGRSLRLSCAASGFTFSTYAMHWVRQAPGKGLEWVAVISYDGSNKYYADSVKGRFTISRDNSKNTLYLQMNSLRAEDTAVYYCARGYGSGSYYPLYLYWGQGTLVTVSS VL: not shown",1.19 fold over isotype
4,"anti-SARS-CoV-2 antibody 405 (antibody, V domains shown) VH: not shown VL: QSALTQPRSVSGSPGQSVTISCTGTSSDVGGYNYVSWYQQHPGKAPKLMIYDVSKRPSGVPDRFSGSKSGNTASLTISGLQAEDEADYYCCSYAGSYNVVFGGGTKLTVL",80.9 fold over isotype
5,"anti-SARS-CoV-2 antibody 423 (antibody, V domains shown) VH: EVQLVESGGGLIQPGGSLRISCAASGFTVRNNHMSWVRQAPGKGLEWVSVFYRGGTTYYADSVKGRFTISRDDSKNTVDLQMNSLRGEDTAVYYCARGLSVAASGYFDCWGQGTLVTVSS VL: DIQMTQSPSSVSASVGDTVTITCRANQGISSWLAWYQQVPGKAPELLIYATSTLQSGVPSRFSGSGSGTDFTLTISSLQPEDFATYYCQQANSFPFTFGPGTKVDIK",1.23 fold over isotype
6,"anti-SARS-CoV-2 antibody 422 (antibody, V domains shown) VH: QVQLVQSGSELKKPGASVKVSCKASGYTFTSYAMNWVRQAPGQGLEWMGWINTNTGNPTYAQGFTGRFVFSLDTSVSTTYLQISSLKAEDTAVYYCARVIGVVTYYYYGMDVWGQGTTVTVSS VL: not shown",1.19 fold over isotype
7,"anti-SARS-CoV-2 antibody 409 (antibody, V domains shown) VH: QVTLRESGPALVKPTQTLTLTCTFSGFSLSTSGMCVSWIRQPPGKALEWLALIDWDDDKYYSTSLKTRLTISKDTSKNQVVLTMTNMDPVDTATYYCARTTYYYVSGRRAEFDPWGQGTLVTVSS VL: NFMLTQPHSVSESPGKTVTISCTGSSGSIASNYVQWYQQRPGSAPTTVIYEDNQRPSGVPDRFSGSIDSSSNSASLTISGLKTEDEADYYCQSYDSSNQGVFGGGTKLTVL",1.03 fold over isotype
8,"anti-SARS-CoV-2 antibody 407 (antibody, V domains shown) VH: QVQLVESGGGVVQPGRSLRLSCAASGFTFSSYGMHWVRQAPGKGLEWVAVISYDGSNKYYADSVKGRFTISRDNSKNTLYLQMNSLRAEDTAVYYCAKCGWDYDFWVGQGYGMDVWGQGTTVTVSS VL: not shown",1.07 fold over isotype
9,"anti-SARS-CoV-2 antibody 396 (antibody, V domains shown) VH: QVQLQQWGAGLLKPSETLSLTCAVYGGSFSGYYWSWIRQPPGKGLEWIGEIIHSGSTNYNPSLKSRVTISVDTSKNQFSLKLSSVTAADTAVYYSARRTGLLWFREGSYYFDYWGQGTLVTVSS VL: DIQMTQSPSSLSASVGDRVTITCRASQGIRNDLGWYQQKPGKAPKRLIYAASSLQSGVPSRFSGSGSGTEFTLTISSLQPEDFATYYCLQHNSYPLTFGGGTKVEIK",1.36 fold over isotype
